Measured values reported in patent US7341992B2, “Lectin-like domain of thrombomodulin and its therapeutic use” (Vlaams Interuniversitair Instituut Voor Biotechnologie VZW, priority 2001, dated 2008).
“Also recorded” adds a separate entry of the source.

B1: TMlec155: Recombinant first 155 amino acids of murine TM, restricted to the lectin-like region, polyhistidine-tagged, expressed in Pichia pastoris (protein)
chain: LSALAKLQPTGSQCVEHECFALFQGPATFLDASQACQRLQGHLMTVRSSVAADVISLLLSQSSMDLGPWIGLQLPQGCDDPVHLGPLRGFQWVTGDNHTSYSRWARPNDQTAPLCGPLCVTVSTATEAAPGEPAWEEKPCETETQGFLCEFYFTA
modifications: left off: small tags and cut ends
notes: Recombinant first 155 amino acids of murine TM, restricted to the lectin-like region, polyhistidine-tagged, expressed in Pichia pastoris
B2: pr. 480 bp: Recombinant human TM fragment, amino acids 1 to 157 of the mature protein, expressed in Pichia pastoris (protein, listed as Homo sapiens)
chain: AEPQPGGSQCVEHDCFALYPGPATFLNASQICDGLRGHLMTVRSSVAADVISLLLNGDGGVGRRRLWIGLQLPPGCGDPKRLGPLRGFQWVTGDNNTSYSRWARLDLNGAPLCGPLCVAVSAAEATVPSEPIWEEQQCEVKADGFLCEFHFPATCRP
modifications: PEPTIDE (1)...(157) Human thrombomodulin fragment 2
notes: Recombinant human TM fragment, amino acids 1 to 157 of the mature protein, expressed in Pichia pastoris
B3: pr. 680 bp: Recombinant human TM fragment, amino acids 1 to 224 of the mature protein, entire N-terminal domain, expressed in Pichia pastoris (protein, listed as Homo sapiens)
chain: AEPQPGGSQCVEHDCFALYPGPATFLNASQICDGLRGHLMTVRSSVAADVISLLLNGDGGVGRRRLWIGLQLPPGCGDPKRLGPLRGFQWVTGDNNTSYSRWARLDLNGAPLCGPLCVAVSAAEATVPSEPIWEEQQCEVKADGFLCEFHFPATCRPLAVEPGAAAAAVSITYGTPFAARGADFQALPVGSSAAVAPLGLQLMCTAPPGAVQGHWAREAPGAWD
modifications: PEPTIDE (1)...(224) Human thrombomodulin fragment 1
notes: Recombinant human TM fragment, amino acids 1 to 224 of the mature protein, entire N-terminal domain, expressed in Pichia pastoris
B4: pr. 400 bp: Recombinant human TM fragment, amino acids 33 to 159 of the mature protein, expressed in Pichia pastoris (protein, listed as Homo sapiens)
chain: DGLRGHLMTVRSSVAADVISLLLNGDGGVGRRRLWIGLQLPPGCGDPKRLGPLRGFQWVTGDNNTSYSRWARLDLNGAPLCGPLCVAVSAAEATVPSEPIWEEQQCEVKADGFLCEFHFPATCRPLA
modifications: PEPTIDE (1)...(127) Human thrombomodulin fragment 4
notes: Recombinant human TM fragment, amino acids 33 to 159 of the mature protein, expressed in Pichia pastoris

What was measured:
fEND.5 cells = assay: Static adhesion assay: human neutrophils on activated fEND.5 cells; assay type: cell-based, murine endothelial cell line; details: for LPS-induced adhesion of human neutrophils to fEND.5 cells (effect in words) / PMN Adhesion to LPS-stimulated fEND.5 Cells, Mean: LPS 20 μg/ml 3 hrs; for PMN Adhesion to LPS-stimulated fEND.5 Cells, Mean / PMN Adhesion to TNF-stimulated fEND.5 Cells, Mean: human neutrophils 50,000 per well; for TNF-induced adhesion of human neutrophils to fEND.5 cells (effect in words) / PMN Adhesion to TNF-stimulated fEND.5 Cells, Mean: TNFα 200 U/ml 3 hrs
Method: Static adhesion assays using human neutrophils (50,000 per well) and confluent fEND.5 cells in 24-well plates were performed exactly as described (see below—Methods section 11). Where noted, TNFα (200 U/ml) or LPS 20 μg/ml, were used to activate the fEND.5 cells for 3 hrs. PMNs were co-incubated with one of the recombinant human TM fragments 1, 2 or 4, (SEQ ID NO 1, 2, 4) or with HPLC-purified peptides representing human TM fragments 3,6 or 7 (SEQ ID NO 3, 6, 7). Tables 11-17 show results, where the amount of recombinant fragment in μg is shown on the bar graphs, and * indicates p<0.05 as compared with buffer control (i.e. without recombinant protein) under the same conditions. In all cases, appropriate controls were used for comparisons.
(§1) Endothelial cells were plated in 24-well dishes and grown to confluence. Following 2 washes of the cell monolayers with HBSS, freshly prepared BCECF-AM-labeled, neutrophils derived from human peripheral blood, or murine bone marrow-derived PMNs or lymphocytes 50,000 per well, were added in a final volume of 1 ml for 30 minutes at room temperature. The media was decanted and the cell monolayers were gently washed three times with HBSS after which the adherent fluorescently labeled leukocytes were counted with an inverted epiflourescence microscope as described above.

pERK1/2 and NFκB = assay: TNFα-induced pERK1/2 and NFκB in HUVECs; assay type: cell-based, human; details: TNFα 200 U/ml for 20 minutes
Method: We predicted that soluble lectin-like domain of TM would suppress PMN adhesion by altering regulation of MAP kinase pathways in ECs. Therefore, HUVECs were exposed to TNFα (200 U/ml) for 20 minutes. […] Total ERK1/2 levels remained unchanged.

[1] = system: TM^LeD/LeD endothelial cells; assay: Static adhesion assay: murine PMNs on endothelial cells from TM^LeD/LeD mice; assay type: cell-based; details: for PMN Adhesion (# per 15 HPFs): PMNs from wild-type mice
Method: Constitutive levels of circulating soluble TM, composed of proteolytic components of the extracellular domains, are found in the plasma of normal individuals, while quantitative changes occur in different disease states. Purified recombinant TMlec155 was prepared using the Pichia pastoris expression system, and further purified by a series of chromatographic steps as detailed in the methods. In a static adhesion assay on TM^Led/Led endothelial cells, PMNs were co-incubated with TMlec155 at two concentrations. Adhesion of PMNs to the resting endothelial cells was, as before, increased as compared with adhesion to wild-type endothelial cells (Table 9). […] The degree of suppression of adhesion was almost to the level of adhesion to wild-type endothelial cells. […] The role of recombinant TMlec155 in vivo was tested by injecting wild-type mice with LPS 20 μg/gm i.p., followed 5 minutes later with an intravenous bolus of recombinant TMlec155 or buffer alone. After a further 3 hours, the serum cytokine response was determined.
Endothelial tumors were induced to grow in 7 day old mice following intraperitoneal (i.p.) injection of retrovirus carrying the middle T antigen of murine Polyomavirus (PymT). After 10-14 days, the tumors were excised, and endothelial cells were isolated^32.33. Primary cultures of lymphatic endothelial cells were isolated from intraperitoneal lymphangiomas, growth of which was induced by injection of incomplete Freund's adjuvant exactly as described^34. Cells were cultured on collagen or gelatin coated plates in M199 media supplemented with 20% fetal bovine serum, porcine heparin 0.1 mg/ml, endothelial cell mitogen 5 μg/ml (Biomedical Technologies Inc., Stoughton, Mass.), 100 μg/ml penicillin and streptomycin 100 μg/ml. Cell cultures were incubated at 37° C. in a humidified atmosphere of 5% CO2 and 95% air, and experiments were performed at passage 3-8. Over 95% of the cells immuno-stained positively for TM and vWF, confirming the endothelial origin and purity.
Neutrophils and lymphocytes were isolated from bone marrow according to the method of Lowell and Berton ^35. Each population was assessed to be over 95% pure by microscopic analysis after Wright staining.
as §1

HUVECs = assay: Rescue of HUVECs from serum starvation-induced cell death; assay type: cell-based, human; details: 3 days of serum deprivation
Method: Because endothelial cell death is a pathway of sustained tissue damage, we evaluated whether TMlec155 was capable of rescuing HUVECs from serum starvation-induced cell death. After 3 days of serum deprivation, over 95% of HUVECs died. Serum starvation with the addition of TMlec155 at concentrations of 1, 10 and 20 μg/ml rescued 2±0.6%, 18±7% and 34±14% of the cells (p=0.69, p<0.05, p<0.05, respectively compared with serum-starved controls), showing that soluble TM rnay also have pro-survival properties.

IL-1β = assay: Cytokine response in vivo after LPS i.p. in wild-type mice; details: LPS 20 μg/gm i.p.
Method: Table 10: Effect of recombinant TMlec155 on cytokine response in vivo. Wild-type mice were treated with LPS 20 μg/gm i.p., following 5 min later with the noted treatment. Plasma levels of IL-1b were measured 3 hours later
Constitutive levels of circulating soluble TM, composed of proteolytic components of the extracellular domains, are found in the plasma of normal individuals, while quantitative changes occur in different disease states. Purified recombinant TMlec155 was prepared using the Pichia pastoris expression system, and further purified by a series of chromatographic steps as detailed in the methods. In a static adhesion assay on TM^Led/Led endothelial cells, PMNs were co-incubated with TMlec155 at two concentrations. […] After a further 3 hours, the serum cytokine response was determined.
Double antibody sandwich ELISA kits, purchased from R & D Systems Europe (Abingdon, UK), were used to quantitate murine plasma levels of TNFα, IL-1β, IL-6 and IL-10. […] A sensitive and specific radioimmunoassay to quantitate plasma levels of murine FPA was performed as previously reported^24.
Lipopolysaccharide (LPS) from Escherichia coli serotype 0111:B4 (Sigma) was injected intraperitoneally into 10-12 week old mice. For lethality studies, animals were closely monitored each day until either recovery or cessation of breathing. […]

Molecule | LPS-induced adhesion of human neutrophils to fEND.5 cells (effect in words) (fEND.5 cells) | PMN Adhesion to LPS-stimulated fEND.5 Cells, Mean (fEND.5 cells; 1 μg of fragment) | PMN Adhesion to LPS-stimulated fEND.5 Cells, Mean (fEND.5 cells; 5 μg of fragment) | PMN Adhesion to LPS-stimulated fEND.5 Cells, Mean (fEND.5 cells; 8 μg of fragment) | PMN Adhesion to LPS-stimulated fEND.5 Cells, Mean (fEND.5 cells; 15 μg of fragment) | TNF-induced adhesion of human neutrophils to fEND.5 cells (effect in words) (fEND.5 cells) | also measured
pept n^o 23: HPLC-purified peptide, amino acids 84-97 of SEQ ID NO: 1 (human TM) | significantly suppressed | 31.015 | 21.535 | – | – | – | –
pept. N^o 24: HPLC-purified peptide, amino acids 3-33 of SEQ ID NO: 1 (human TM) (PQPGGSQCVEHDCFALYPGPATFLNASQICD; PEPTIDE (1)...(31) Human thrombomodulin fragment 3; listed as Homo sapiens) | significantly suppressed | 38.830 | 44.019 | 22.000 | – | – | –
B1 | – | – | – | – | – | – | Accumulation of NFκB (pERK1/2 and NFκB): similarly interfered; Accumulation of pERK1/2 (pERK1/2 and NFκB): similarly interfered; PMN Adhesion (# per 15 HPFs) ([1]; TM^LeD/LeD + TNF endothelial cells, recombinant TMlec155 3.6 mg): 132 ± 90 # per 15 HPFs; PMN Adhesion (# per 15 HPFs) ([1]; TM^LeD/LeD + TNF endothelial cells, recombinant TMlec155 7.2 mg): 153 ± 106 # per 15 HPFs; PMN Adhesion (# per 15 HPFs) ([1]; resting TM^LeD/LeD endothelial cells, recombinant TMlec155 3.6 mg): 15 ± 6 # per 15 HPFs; PMN Adhesion (# per 15 HPFs) ([1]; resting TM^LeD/LeD endothelial cells, recombinant TMlec155 7.2 mg): 12 ± 7 # per 15 HPFs; Adhesion of PMNs to TNFα-activated TM^Led/Led endothelial cells (effect in words) ([1]; static adhesion assay, PMNs co-incubated with TMlec155): significantly reduced; Adhesion of PMNs to resting TM^Led/Led endothelial cells (effect in words) ([1]; static adhesion assay, PMNs co-incubated with TMlec155 at two concentrations): significantly decreased; also recorded: abrogated; also recorded: significant decrease in adhesion; cells rescued from serum starvation-induced cell death (HUVECs; 1 μg/ml): 2±0.6%; cells rescued from serum starvation-induced cell death (HUVECs; 10 μg/ml): 18±7%; cells rescued from serum starvation-induced cell death (HUVECs; 20 μg/ml): 34±14%; IL-1β levels (effect in words) (IL-1β; i.v. bolus 5 minutes later, 3 hours, compared with control): significantly suppressed; IL-1β (IL-1β; treatment i.v. bolus 5 min later, plasma 3 hours later): 286 ± 75 ng/mL
B2 | significantly suppressed | – | 27.68 | 25.50 | 19.01 | – | –
B3 | significantly suppressed | – | 29.403 | 24.292 | 18.333 | significantly suppressed | PMN Adhesion to TNF-stimulated fEND.5 Cells, Mean (fEND.5 cells; 5 μg of fragment): 85.656; PMN Adhesion to TNF-stimulated fEND.5 Cells, Mean (fEND.5 cells; 10 μg of fragment): 24.303
B4 | suppressed | – | 33.642 | 29.725 | – | suppressed | PMN Adhesion to TNF-stimulated fEND.5 Cells, Mean (fEND.5 cells; 8 μg of fragment): 53.417; PMN Adhesion to TNF-stimulated fEND.5 Cells, Mean (fEND.5 cells; 20 μg of fragment): 63.500
